Assay results reported in paper PMC7533888.

T1: AtARF1-DBD (Arabidopsis thaliana, UniProt Q8L7G0 1-355)
T1 sequence: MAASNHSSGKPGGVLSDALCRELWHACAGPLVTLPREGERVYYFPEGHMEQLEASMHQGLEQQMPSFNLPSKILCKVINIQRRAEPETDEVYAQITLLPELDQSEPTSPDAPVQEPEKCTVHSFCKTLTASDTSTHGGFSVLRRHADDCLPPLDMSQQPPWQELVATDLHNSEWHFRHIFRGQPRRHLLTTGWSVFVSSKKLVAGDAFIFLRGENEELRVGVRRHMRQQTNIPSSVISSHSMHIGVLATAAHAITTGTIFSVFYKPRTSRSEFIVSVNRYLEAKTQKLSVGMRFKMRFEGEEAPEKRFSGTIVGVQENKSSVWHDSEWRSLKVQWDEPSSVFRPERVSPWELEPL

T2: AtARF5-DBD (Arabidopsis thaliana, UniProt P93024 1-390)
T2 sequence: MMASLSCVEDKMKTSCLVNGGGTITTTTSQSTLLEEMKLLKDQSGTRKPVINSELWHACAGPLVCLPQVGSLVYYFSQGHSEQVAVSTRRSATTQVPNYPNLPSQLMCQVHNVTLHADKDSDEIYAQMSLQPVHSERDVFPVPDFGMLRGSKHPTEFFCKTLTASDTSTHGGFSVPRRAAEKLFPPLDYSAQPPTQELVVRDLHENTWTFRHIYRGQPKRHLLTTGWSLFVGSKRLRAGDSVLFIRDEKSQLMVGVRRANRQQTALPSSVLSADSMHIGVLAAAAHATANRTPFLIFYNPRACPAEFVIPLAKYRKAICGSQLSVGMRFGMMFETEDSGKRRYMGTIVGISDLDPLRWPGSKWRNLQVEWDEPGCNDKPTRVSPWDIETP


Experiments:
AtARF1-DBD = target: T1, AtARF1-DBD; assay: smFRET titration
AtARF5-DBD [1] = target: T2, AtARF5-DBD; assay: smFRET titration
AtARF5-DBD [2] = target: T2, AtARF5-DBD; assay: size-exclusion chromatography

Row | Binder | Kd (AtARF1-DBD) [µM] | Kd (AtARF5-DBD [1]) [µM] | binding result (AtARF5-DBD [2])
1 | IR8 (dsDNA) DNA 1: ACTCTTTTTTGTCGGGGAAAAGGCCGACAATCCGTGTG DNA 2: CACACGGATTGTCGGCCTTTTCCCCGACAAAAAAGAGT | 0.14 | 0.009 | 
2 | DR5 (dsDNA) DNA 1: ACTGCCTTTTGTCGGCCTTTTGTCGGATCCGTGTG DNA 2: CACACGGATCCGACAAAAGGCCGACAAAAGGCAGT | 0.57 | 0.06 | 
3 | pTMO5Δ2-IR7 (dsDNA) DNA 1: TTTTTTTTGGTCGGTTTTTTA DNA 2: TAAAAAACCGACCAAAAAAAA |  |  | no binding
4 | pTMO5Δ1-IR7 (dsDNA) DNA 1: TGGTCTCTGGTCGGTTTTTTA DNA 2: TAAAAAACCGACCAGAGACCA |  |  | no binding
